Experimental data taken from publication PMC4681132 (Nature, 2015).

T1: RNA polymerase III subunit C128 (S. cerevisiae, UniProt P22276 1-1149)
T1 sequence: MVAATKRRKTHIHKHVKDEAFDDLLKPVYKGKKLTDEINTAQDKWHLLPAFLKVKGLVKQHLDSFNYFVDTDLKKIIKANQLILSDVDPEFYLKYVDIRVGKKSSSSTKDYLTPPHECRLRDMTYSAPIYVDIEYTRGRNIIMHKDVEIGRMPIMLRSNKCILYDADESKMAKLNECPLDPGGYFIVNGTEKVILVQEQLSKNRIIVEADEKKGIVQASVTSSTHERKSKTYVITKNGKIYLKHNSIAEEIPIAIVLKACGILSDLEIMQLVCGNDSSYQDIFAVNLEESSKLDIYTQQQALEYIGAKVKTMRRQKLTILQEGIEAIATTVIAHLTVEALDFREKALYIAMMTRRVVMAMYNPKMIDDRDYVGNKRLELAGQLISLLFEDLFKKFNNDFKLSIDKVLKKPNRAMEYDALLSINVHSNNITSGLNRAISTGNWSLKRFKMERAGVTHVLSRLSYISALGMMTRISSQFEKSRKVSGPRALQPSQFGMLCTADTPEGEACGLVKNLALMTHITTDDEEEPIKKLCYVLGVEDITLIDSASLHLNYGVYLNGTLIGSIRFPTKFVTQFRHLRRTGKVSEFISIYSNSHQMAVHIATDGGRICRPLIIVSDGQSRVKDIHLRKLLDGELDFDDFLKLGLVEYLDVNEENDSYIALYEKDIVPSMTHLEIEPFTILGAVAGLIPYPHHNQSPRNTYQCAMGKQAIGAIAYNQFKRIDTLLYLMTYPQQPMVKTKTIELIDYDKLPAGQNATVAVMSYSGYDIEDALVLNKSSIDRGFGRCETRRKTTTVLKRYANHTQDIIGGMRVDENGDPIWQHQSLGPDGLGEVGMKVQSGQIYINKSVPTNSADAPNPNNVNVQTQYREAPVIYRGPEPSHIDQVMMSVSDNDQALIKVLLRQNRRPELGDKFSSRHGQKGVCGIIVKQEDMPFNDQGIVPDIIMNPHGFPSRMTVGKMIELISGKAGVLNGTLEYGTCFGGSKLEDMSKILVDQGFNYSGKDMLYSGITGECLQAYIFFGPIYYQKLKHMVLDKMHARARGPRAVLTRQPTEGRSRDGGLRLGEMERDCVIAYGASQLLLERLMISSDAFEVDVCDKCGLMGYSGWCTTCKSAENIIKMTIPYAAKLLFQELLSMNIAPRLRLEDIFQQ

T2: RNA polymerase III subunit C53 (S. cerevisiae, UniProt P25441 1-422)
T2 sequence: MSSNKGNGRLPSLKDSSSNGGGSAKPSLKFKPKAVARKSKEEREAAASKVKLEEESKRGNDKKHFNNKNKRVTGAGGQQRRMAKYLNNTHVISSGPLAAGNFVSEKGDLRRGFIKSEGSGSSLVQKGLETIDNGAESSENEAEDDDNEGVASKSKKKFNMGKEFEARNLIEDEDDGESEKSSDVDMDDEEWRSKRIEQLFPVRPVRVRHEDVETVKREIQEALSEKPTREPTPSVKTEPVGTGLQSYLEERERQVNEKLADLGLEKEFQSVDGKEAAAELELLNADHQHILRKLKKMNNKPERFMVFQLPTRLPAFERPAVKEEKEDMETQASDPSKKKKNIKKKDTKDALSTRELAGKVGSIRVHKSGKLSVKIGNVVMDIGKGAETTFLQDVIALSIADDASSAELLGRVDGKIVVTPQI

T3: RNA polymerase III stalk subunit C25 (S. cerevisiae, UniProt P35718 1-212)
T3 sequence: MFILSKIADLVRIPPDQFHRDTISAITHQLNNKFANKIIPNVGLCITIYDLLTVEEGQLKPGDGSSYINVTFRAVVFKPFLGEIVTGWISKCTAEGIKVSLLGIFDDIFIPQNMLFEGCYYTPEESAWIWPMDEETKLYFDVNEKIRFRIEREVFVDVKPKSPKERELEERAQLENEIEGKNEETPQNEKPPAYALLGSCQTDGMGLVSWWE

T4: RNA polymerase III subunit C160 (S. cerevisiae, UniProt P04051 1-1460)
T4 sequence: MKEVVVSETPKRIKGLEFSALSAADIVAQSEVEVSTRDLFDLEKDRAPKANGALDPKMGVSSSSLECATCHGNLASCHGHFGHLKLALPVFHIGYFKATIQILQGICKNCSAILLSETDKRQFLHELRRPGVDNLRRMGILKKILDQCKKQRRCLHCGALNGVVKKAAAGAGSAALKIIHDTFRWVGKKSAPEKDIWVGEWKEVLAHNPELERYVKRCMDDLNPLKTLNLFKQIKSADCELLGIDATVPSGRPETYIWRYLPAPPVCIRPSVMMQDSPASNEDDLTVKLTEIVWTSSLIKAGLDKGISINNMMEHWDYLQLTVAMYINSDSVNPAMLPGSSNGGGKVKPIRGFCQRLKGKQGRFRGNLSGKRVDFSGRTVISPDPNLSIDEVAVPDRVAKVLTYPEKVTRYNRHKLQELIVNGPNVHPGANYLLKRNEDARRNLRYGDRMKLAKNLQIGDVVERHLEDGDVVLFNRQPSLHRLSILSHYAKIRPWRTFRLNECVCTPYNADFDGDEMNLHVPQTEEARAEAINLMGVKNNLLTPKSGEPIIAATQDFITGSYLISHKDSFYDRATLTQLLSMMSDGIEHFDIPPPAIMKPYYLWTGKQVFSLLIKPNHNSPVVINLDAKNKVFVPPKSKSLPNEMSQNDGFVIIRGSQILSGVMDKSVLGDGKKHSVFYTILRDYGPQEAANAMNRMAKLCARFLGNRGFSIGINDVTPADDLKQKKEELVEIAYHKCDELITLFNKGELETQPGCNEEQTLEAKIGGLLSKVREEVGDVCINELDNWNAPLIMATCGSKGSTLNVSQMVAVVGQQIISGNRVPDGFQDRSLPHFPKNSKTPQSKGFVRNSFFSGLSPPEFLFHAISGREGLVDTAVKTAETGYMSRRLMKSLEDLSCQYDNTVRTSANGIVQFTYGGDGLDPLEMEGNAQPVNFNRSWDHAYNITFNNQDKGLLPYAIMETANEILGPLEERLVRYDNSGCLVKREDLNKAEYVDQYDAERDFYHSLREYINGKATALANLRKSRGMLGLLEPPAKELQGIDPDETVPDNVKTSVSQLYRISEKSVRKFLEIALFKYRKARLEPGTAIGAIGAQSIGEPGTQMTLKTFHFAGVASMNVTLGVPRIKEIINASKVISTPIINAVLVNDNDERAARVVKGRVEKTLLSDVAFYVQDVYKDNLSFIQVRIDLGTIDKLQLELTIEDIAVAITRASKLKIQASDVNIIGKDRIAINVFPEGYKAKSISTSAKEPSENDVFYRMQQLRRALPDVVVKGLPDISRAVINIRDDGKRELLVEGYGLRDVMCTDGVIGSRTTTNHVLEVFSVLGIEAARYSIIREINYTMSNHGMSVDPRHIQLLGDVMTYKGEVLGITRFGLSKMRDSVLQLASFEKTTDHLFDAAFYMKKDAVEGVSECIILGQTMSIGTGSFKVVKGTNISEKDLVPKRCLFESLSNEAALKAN


Columns and labels:
Test in all cases: cryo-EM structure
[1] = target: T1, RNA polymerase III subunit C128
[2] = target: T2, RNA polymerase III subunit C53
[3] = target: T3, RNA polymerase III stalk subunit C25
[4] = target: T4, RNA polymerase III subunit C160

Row | binding result [1] | binding result [2] | binding result [3] | binding result [4] | Binder
1 | binds | binds |  |  | RNA polymerase III subunit C37 (natural protein, S. cerevisiae) MSIDNKLFVTEEDEEDRTQDRADVEDESNDIDMIADENGTNSAIANEQEEKSEEVKAEDDTGEEEEDDPVIEEFPLKISGEEESLHVFQYANRPRLVGRKPAEHPFISAARYKPKSHLWEIDIPLDEQAFYNKDKAESEWNGVNVQTLKGVGVENNGQYAAFVKDMQVYLVPIERVAQLKPFFKYIDDANVTRKQEDARRNPNPSSQRAQVVTMSVKSVNDPSQNRLTGSLLAHKVADEEANIELTWAEGTFEQFKDTIVKEAEDKTLVALEKQEDYIDNLV
2 |  |  | binds | binds | RNA polymerase III stalk subunit C17 (natural protein, S. cerevisiae) MKVLEERNAFLSDYEVLKFLTDLEKKHLWDQKSLAALKKSRSKGKQNRPYNHPELQGITRNVVNYLSINKNFINQEDEGEERESSGAKDAEKSGISKMSDESFAELMTKLNSFKLFKAEKLQIVNQLPANMVHLYSIVEECDARFDEKTIEEMLEIISGYA
